What was measured:
[1] = target: α chain (α96Val→Trp) with the N-terminal methionine, as expressed in E. coli before processing (human)
[2] = target: β chain of human hemoglobin with the N-terminal methionine, as expressed in E. coli before processing (human)

## E. coli methionine aminopeptidase (from UniProt P0AE18) (enzyme)
[1]
  removal of the N-terminal methionine, electrospray mass spectrometry of the purified r Hb: > 98%
[2]
  removal of the N-terminal methionine, electrospray mass spectrometry of the purified r Hb: 90%

Reference: US5843888
